Our source for the self-aminoacylation values is the supplement of paper PMC9233669.

This sample holds only a part of the variants without activity.

One data set concerns biotinyl-Phe-oxazolone. Description: self-aminoacylation, catalytic enhancement (BFO) (fold over background); higher = more active; k-Seq, kA / k0A0; sequences stand for … in GGGAAUGGAUCCACAUCUACGAAUUC…UUCACUGCAGACUUGACGAAGCUG
In short, it runs like this:
(§1)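 Each biotinyl-aminoacyl-oxazolone, at 2–1250 μM, was incubated with mutagenized RNA pools (0.43 μM) carrying a 21-nt variable region. The 50 μL reactions contained HEPES/NaCl/KCl/MgCl2/CaCl2 buffer with 5% acetonitrile at pH 6.9–7.0 and ran for 90 minutes at room temperature. After streptavidin capture, RNA was measured by qPCR in triplicate and by Illumina sequencing, and catalytic enhancement was calculated as median kA over the uncatalyzed rate from a pseudo-first-order fit of per-sequence fraction reacted.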

In a further data set the test system is biotinyl-Val-oxazolone. Description: self-aminoacylation, catalytic enhancement (BVO) (fold over background); higher = more active; k-Seq, kA / k0A0; sequences stand for … in GGGAAUGGAUCCACAUCUACGAAUUC…UUCACUGCAGACUUGACGAAGCUG
In short, it runs like this: as §1

In a further data set the test system is biotinyl-Trp-oxazolone. Description: self-aminoacylation, catalytic enhancement (BWO) (fold over background); higher = more active; k-Seq, kA / k0A0; sequences stand for … in GGGAAUGGAUCCACAUCUACGAAUUC…UUCACUGCAGACUUGACGAAGCUG
In short, it runs like this: as §1

The test system of a further data set is biotinyl-Met-oxazolone. Description: self-aminoacylation, catalytic enhancement (BMO) (fold over background); higher = more active; k-Seq, kA / k0A0; sequences stand for … in GGGAAUGGAUCCACAUCUACGAAUUC…UUCACUGCAGACUUGACGAAGCUG
In short, it runs like this:
as §1

Another data set concerns biotinyl-Leu-oxazolone. Description: self-aminoacylation, catalytic enhancement (BLO) (fold over background); higher = more active; k-Seq, kA / k0A0; sequences stand for … in GGGAAUGGAUCCACAUCUACGAAUUC…UUCACUGCAGACUUGACGAAGCUG
In short, it runs like this:
as §1

A further data set has as its system biotinyl-Ile-oxazolone. Description: self-aminoacylation, catalytic enhancement (BIO) (fold over background); higher = more active; k-Seq, kA / k0A0; sequences stand for … in GGGAAUGGAUCCACAUCUACGAAUUC…UUCACUGCAGACUUGACGAAGCUG
In short, it runs like this:
as §1

On to “AUUACCCUGGUCAUCCAGUGG [Fam2.1 aminoacylation ribozyme variant]”, for which the self-aminoacylation in the data set with biotinyl-Phe-oxazolone is 1.42; in the data set with biotinyl-Val-oxazolone it was 1.3; in the data set with biotinyl-Trp-oxazolone, 1.28; in the data set with biotinyl-Met-oxazolone it was 1.84; in the data set on biotinyl-Leu-oxazolone it was 1.68; in the data set with biotinyl-Ile-oxazolone, 1.22.
In the case of “AUUACACUGGACAUCGAGUGA [Fam2.1 aminoacylation ribozyme variant]”, the self-aminoacylation in the data set with biotinyl-Phe-oxazolone came to 14.9; with biotinyl-Val-oxazolone, 2.87; in the data set with biotinyl-Trp-oxazolone, 6.45; with biotinyl-Met-oxazolone it was 5.83; with biotinyl-Leu-oxazolone, 6.11; in the data set with biotinyl-Ile-oxazolone it was 3.23.
As to “AUUCACCUAGGUCAUCGGUUG [Fam2.2 aminoacylation ribozyme variant]”, the self-aminoacylation in the data set on biotinyl-Phe-oxazolone worked out at 1.02; with biotinyl-Val-oxazolone, 1.03; in the data set on biotinyl-Trp-oxazolone, 0.932; in the data set with biotinyl-Met-oxazolone, 1.01; with biotinyl-Leu-oxazolone it was 1.11; with biotinyl-Ile-oxazolone, 1.
Regarding “CUACUUCAAAAAAUCGGUCUG [Fam1A.1 aminoacylation ribozyme variant]”, the self-aminoacylation in the data set on biotinyl-Phe-oxazolone stood at 11.8; in the data set on biotinyl-Val-oxazolone, 0.795; in the data set on biotinyl-Trp-oxazolone, 7.37; with biotinyl-Met-oxazolone, 0.758; in the data set with biotinyl-Leu-oxazolone it was 0.92; with biotinyl-Ile-oxazolone, 1.
For “AUUUCCCUGGUCAUCGGGUGA [Fam2.1 aminoacylation ribozyme variant]”, the self-aminoacylation with biotinyl-Phe-oxazolone amounted to 90.8; with biotinyl-Val-oxazolone it was 11.6; in the data set on biotinyl-Trp-oxazolone it was 23.9; with biotinyl-Met-oxazolone, 18.5; in the data set with biotinyl-Leu-oxazolone, 21.5; in the data set on biotinyl-Ile-oxazolone, 10.1.
On to “CCACUCUUCAAACAAUCGGUC [Fam1B.1 aminoacylation ribozyme variant]”, for which the self-aminoacylation amounted to 78.3 in the data set on biotinyl-Phe-oxazolone; 1.3 with biotinyl-Val-oxazolone; 41.8 in the data set with biotinyl-Trp-oxazolone; 1.44 with biotinyl-Met-oxazolone; 2.04 with biotinyl-Leu-oxazolone; 1.23 in the data set on biotinyl-Ile-oxazolone.
With “CUAAUUCAAACUAUCGGUCUG [Fam1A.1 aminoacylation ribozyme variant]”, the self-aminoacylation in the data set on biotinyl-Phe-oxazolone came to 1.1; in the data set with biotinyl-Val-oxazolone it was 0.936; with biotinyl-Trp-oxazolone, 0.685; with biotinyl-Met-oxazolone, 1.09; with biotinyl-Leu-oxazolone it was 0.938; in the data set on biotinyl-Ile-oxazolone it was 0.978.
“CCACACUUCGAUCAAUCGGUC [Fam1B.1 aminoacylation ribozyme variant]”: the self-aminoacylation in the data set on biotinyl-Phe-oxazolone was 0.966; with biotinyl-Val-oxazolone, 0.871; in the data set on biotinyl-Trp-oxazolone, 0.903; in the data set on biotinyl-Met-oxazolone, 0.767; with biotinyl-Leu-oxazolone, 0.777; in the data set with biotinyl-Ile-oxazolone, 0.826.
Take “AAGUUUGCAAAUAGUCGCAAU [Fam3.1 aminoacylation ribozyme variant]”: the self-aminoacylation in the data set with biotinyl-Phe-oxazolone was 2.03; in the data set with biotinyl-Val-oxazolone, 1.26; in the data set with biotinyl-Trp-oxazolone it was 1.78; in the data set with biotinyl-Met-oxazolone it was 1.64; with biotinyl-Leu-oxazolone it was 1.27; with biotinyl-Ile-oxazolone it was 1.35.
On to “AUUCACAUAGGCCAUCGGGUG [Fam2.2 aminoacylation ribozyme variant]”, for which the self-aminoacylation with biotinyl-Phe-oxazolone came to 34.7; in the data set with biotinyl-Val-oxazolone, 3.41; in the data set with biotinyl-Trp-oxazolone, 4.23; in the data set on biotinyl-Met-oxazolone it was 4.86; in the data set on biotinyl-Leu-oxazolone, 5.85; with biotinyl-Ile-oxazolone it was 3.23.
For the sequence “CUACUUCAAACAUUUGGUCUG [Fam1A.1 aminoacylation ribozyme variant]”, the self-aminoacylation in the data set with biotinyl-Phe-oxazolone is 0.677; with biotinyl-Val-oxazolone, 0.984; in the data set with biotinyl-Trp-oxazolone, 0.678; in the data set on biotinyl-Met-oxazolone it was 0.873; in the data set on biotinyl-Leu-oxazolone it was 0.802; in the data set on biotinyl-Ile-oxazolone it was 1.13.
In the case of “CCAAACUUCAAGCAAUCGGAC [Fam1B.1 aminoacylation ribozyme variant]”, the self-aminoacylation with biotinyl-Phe-oxazolone came to 1.14; with biotinyl-Val-oxazolone, 1.1; with biotinyl-Trp-oxazolone it was 0.602; with biotinyl-Met-oxazolone, 0.662; in the data set on biotinyl-Leu-oxazolone, 0.789; with biotinyl-Ile-oxazolone, 0.912.
On to “AAGUUAGCUAUUAGUCGCAAG [Fam3.1 aminoacylation ribozyme variant]”, for which the self-aminoacylation with biotinyl-Phe-oxazolone was determined as 2.06; in the data set on biotinyl-Val-oxazolone it was 1.6; in the data set on biotinyl-Trp-oxazolone, 1.74; in the data set with biotinyl-Met-oxazolone, 1.34; in the data set on biotinyl-Leu-oxazolone it was 1.82; in the data set with biotinyl-Ile-oxazolone, 1.99.
Turning to “AUUCACCUAGGUGACCGGGUG [Fam2.2 aminoacylation ribozyme variant]”, the self-aminoacylation with biotinyl-Phe-oxazolone is 23; in the data set on biotinyl-Val-oxazolone, 4.19; in the data set with biotinyl-Trp-oxazolone it was 6.82; with biotinyl-Met-oxazolone, 3.84; in the data set on biotinyl-Leu-oxazolone, 5.29; in the data set with biotinyl-Ile-oxazolone, 4.8.
With “AAGUUUGCUACUAGUCGGAAG [Fam3.1 aminoacylation ribozyme variant]”, the self-aminoacylation in the data set with biotinyl-Phe-oxazolone worked out at 0.777; with biotinyl-Val-oxazolone, 0.749; in the data set on biotinyl-Trp-oxazolone, 0.866; in the data set with biotinyl-Met-oxazolone it was 0.712; in the data set on biotinyl-Leu-oxazolone, 0.518; in the data set on biotinyl-Ile-oxazolone, 0.835.
As for “CCACACUUCCAGCAAUCGGGC [Fam1B.1 aminoacylation ribozyme variant]”, the self-aminoacylation with biotinyl-Phe-oxazolone was found to be 1.84; in the data set on biotinyl-Val-oxazolone it was 2.32; with biotinyl-Trp-oxazolone, 2.82; in the data set on biotinyl-Met-oxazolone it was 1.72; with biotinyl-Leu-oxazolone, 1.74; in the data set with biotinyl-Ile-oxazolone, 2.
Consider “CUACUUCACACGAUCGGUCUG [Fam1A.1 aminoacylation ribozyme variant]”, for which the self-aminoacylation in the data set with biotinyl-Phe-oxazolone is 0.678; in the data set on biotinyl-Val-oxazolone it was 0.777; in the data set with biotinyl-Trp-oxazolone it was 0.654; in the data set with biotinyl-Met-oxazolone it was 0.97; in the data set on biotinyl-Leu-oxazolone, 0.853; with biotinyl-Ile-oxazolone, 0.913.
Turning to “CCACACUUCAAGCAGUCUGUC [Fam1B.1 aminoacylation ribozyme variant]”, the self-aminoacylation in the data set on biotinyl-Phe-oxazolone is 0.562; with biotinyl-Val-oxazolone, 0.478; in the data set with biotinyl-Trp-oxazolone, 0.305; in the data set with biotinyl-Met-oxazolone it was 0.383; in the data set with biotinyl-Leu-oxazolone, 0.353; in the data set with biotinyl-Ile-oxazolone, 0.339.
As for “AUUAUCCUGGACAUCGAGUGA [Fam2.1 aminoacylation ribozyme variant]”, the self-aminoacylation with biotinyl-Phe-oxazolone turned out to be 34.7; with biotinyl-Val-oxazolone, 3.06; in the data set with biotinyl-Trp-oxazolone, 8.19; with biotinyl-Met-oxazolone, 6.78; in the data set on biotinyl-Leu-oxazolone it was 6.24; in the data set on biotinyl-Ile-oxazolone, 2.88.
As to “AUUCAUCUAGGUCAUCGGGGG [Fam2.2 aminoacylation ribozyme variant]”, the self-aminoacylation in the data set with biotinyl-Phe-oxazolone is 5.32; in the data set with biotinyl-Val-oxazolone, 1.9; in the data set with biotinyl-Trp-oxazolone, 2.14; in the data set with biotinyl-Met-oxazolone it was 2.13; in the data set with biotinyl-Leu-oxazolone it was 2.31; with biotinyl-Ile-oxazolone it was 1.82.
As to “AAGUUUGCAAAUAGUCACAAG [Fam3.1 aminoacylation ribozyme variant]”, the self-aminoacylation in the data set with biotinyl-Phe-oxazolone was 0.954; in the data set on biotinyl-Val-oxazolone, 0.982; in the data set with biotinyl-Trp-oxazolone it was 0.887; in the data set on biotinyl-Met-oxazolone, 1.11; in the data set on biotinyl-Leu-oxazolone it was 0.949; with biotinyl-Ile-oxazolone, 1.05.
“ACUACCCUGUUCAUCGAGUGA [Fam2.1 aminoacylation ribozyme variant]”: the self-aminoacylation with biotinyl-Phe-oxazolone worked out at 6.68; with biotinyl-Val-oxazolone, 2.33; in the data set on biotinyl-Trp-oxazolone, 5.04; in the data set on biotinyl-Met-oxazolone, 3.17; in the data set on biotinyl-Leu-oxazolone, 3.27; in the data set on biotinyl-Ile-oxazolone, 2.28.
In the case of “AUCACCCUGGUCAACGAGUGA [Fam2.1 aminoacylation ribozyme variant]”, the self-aminoacylation in the data set on biotinyl-Phe-oxazolone was 64.3; in the data set with biotinyl-Val-oxazolone, 4.69; in the data set with biotinyl-Trp-oxazolone it was 10.6; in the data set with biotinyl-Met-oxazolone it was 9.31; with biotinyl-Leu-oxazolone, 10.6; in the data set with biotinyl-Ile-oxazolone, 4.43.
As for “AUUCACAUAGGUCAUCGGCUG [Fam2.2 aminoacylation ribozyme variant]”, the self-aminoacylation is 7.68 in the data set with biotinyl-Phe-oxazolone; 1.78 in the data set on biotinyl-Val-oxazolone; 1.89 in the data set on biotinyl-Trp-oxazolone; 1.64 in the data set with biotinyl-Met-oxazolone; 1.61 with biotinyl-Leu-oxazolone; 1.72 with biotinyl-Ile-oxazolone.
With “AAAUUUCCUAAUAGUCGCAAG [Fam3.1 aminoacylation ribozyme variant]”, the self-aminoacylation is 1.2 in the data set on biotinyl-Phe-oxazolone; 1.09 with biotinyl-Val-oxazolone; 0.976 in the data set on biotinyl-Trp-oxazolone; 1.1 in the data set on biotinyl-Met-oxazolone; 1.18 in the data set with biotinyl-Leu-oxazolone; 1.24 in the data set on biotinyl-Ile-oxazolone.
